Source: publication PMC7083938, “NELL2-Robo3 complex structure reveals mechanisms of receptor activation for axon guidance” (Nature Communications, 2020)
Positions count from the first letter of the chain named.

What was measured:
Experiment in all cases: flow cytometry on cells; biotinylated ligand at various concentrations, 30 min at 4 °C in PBS + 0.1% BSA, on Drosophila S2 cells displaying the partner (C-terminal FLAG, rat Neurexin-1 transmembrane helix); Cy5-streptavidin; gated on anti-FLAG positive cells; MFI fit to a single-site model; apparent KD
Details in all cases: one partner purified
[1] = target: T1, hRobo3 FN1-3 I624A/L626A, biotinylated (human, UniProt Q96MS0 549-870, I624A | L626A, biotin on the Avi-tag (BirA))
T1 construct: human Robo3, FN domains 1-3, P549-L870; source: High Five cells (baculovirus), purified, biotinylated with BirA (general methods)
T1 sequence (looked up): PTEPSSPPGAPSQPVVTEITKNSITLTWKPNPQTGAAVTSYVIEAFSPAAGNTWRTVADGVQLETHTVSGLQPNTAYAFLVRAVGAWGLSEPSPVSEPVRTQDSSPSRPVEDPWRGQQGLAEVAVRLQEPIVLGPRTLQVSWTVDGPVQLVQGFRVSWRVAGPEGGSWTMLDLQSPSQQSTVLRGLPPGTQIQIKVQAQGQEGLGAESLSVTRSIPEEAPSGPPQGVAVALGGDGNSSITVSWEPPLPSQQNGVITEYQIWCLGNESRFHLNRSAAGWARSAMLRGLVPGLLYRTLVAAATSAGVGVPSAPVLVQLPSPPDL

[2] = target: T2, hRobo3 FN1-3 T604A, biotinylated (human, UniProt Q96MS0 549-870, T604A, biotin on the Avi-tag (BirA))
T2 construct: human Robo3, FN domains 1-3, P549-L870; source: High Five cells (baculovirus), purified, biotinylated with BirA (general methods)
T2 sequence (looked up): T1 sequence (looked up) with T56A, A76I, A78L

[3] = target: T3, hRobo3 FN1-3 F594A/W602A, biotinylated (human, UniProt Q96MS0 549-870, F594A | W602A, biotin on the Avi-tag (BirA))
T3 construct: human Robo3, FN domains 1-3, P549-L870; source: High Five cells (baculovirus), purified, biotinylated with BirA (general methods)
T3 sequence (looked up): T1 sequence (looked up) with F46A, W54A, A76I, A78L

Kd [1]: 6.5 µM
Kd [2]: 7.9 µM
Kd [3]: ≥ 100 µM
B1: hNELL2 EGF1-6 displayed on S2 cells (domain or fragment)
chain: not shown
notes: human NELL2, EGF domains 1-6, G397-T637; also called NELL2EGF1-6 WT (Actin 5C, C-terminal FLAG); FLAG-tagged NELL2 EGF1-6; source: Drosophila S2 cells, transiently transfected, on the cell surface; not shown: FLAG, C-terminal, kept; transmembrane helix of rat Neurexin-1, C-terminal, kept
